The assay has as its system SREBP-1. Kind of assay: SREBP-1 proteolysis (maturation) assay, Western immunoblot of nuclear fractions, HH-25 hepatocytes. Format: cell-based, human. The following applies: HH-25 hepatocytes, sterol independent. How it is done: FIGS. 2A-2C illustrate effects of TNF-α sphingomyelinase and C2-ceramide on the kinetics of SREBP-1 maturation—FIGS. 2A-2C is explained in more detail as follows: Cells were maintained in media supplemented with 1 μg/ml 25-hydroxy cholesterol and 15 μg/ml cholesterol for 24 hours before the experiment. The cells were treated for the indicated time as described in materials and methods. The cells were then harvested in PBS, pelleted and frozen. Lysis and nuclear fractionation were performed as described. Nuclear fractions (50 μg of protein) were electrophoresed on a 7.5% polyacrylamide gel and transferred to a PVDF membrane. Western blotting was performed as described. Band intensity was quantified via densitometry. Error bars represent ±one standard deviation from the mean. 2A) The kinetics of SREBP maturation as measured by the increase in mature SREBP-1 are plotted. Fold increase was calculated by comparing each time point to the corresponding control value (TNF-α is represented by stippled bars, bacterial sphingomyelinase is represented by light gray bars and C2-ceramide by the dark bars.) 2B) Cells were treated with TNF-α (10 ng/ml) and prepared as described above. The bands corresponding to the precursor and mature forms of SREBP-1 were quantified and their ratio plotted. 2C) Representative Western blots from which numerical data was derived. […]
For orientation: In western blotting, separated proteins are transferred to a membrane and probed.

B1: EGF: human recombinant EGF from Upstate Biotechnology (protein, UniProt P01133 23-1207, looked up)
Pro-epidermal growth factor: PQHWSCPEGTLAGNGNSTCVGPAPFLIFSHGNSIFRIDTEGTNYEQLVVDAGVSVIMDFHYNEKRIYWVDLERQLLQRVFLNGSRQERVCNIEKNVSGMAINWINEEVIWSNQQEGIITVTDMKGNNSHILLSALKYPANVAVDPVERFIFWSSEVAGSLYRADLDGVGVKALLETSEKITAVSLDVLDKRLFWIQYNREGSNSLICSCDYDGGSVHISKHPTQHNLFAMSLFGDRIFYSTWKMKTIWIANKHTGKDMVRINLHSSFVPLGELKVVHPLAQPKAEDDTWEPEQKLCKLRKGNCSSTVCGQDLQSHLCMCAEGYALSRDRKYCEDVNECAFWNHGCTLGCKNTPGSYYCTCPVGFVLLPDGKRCHQLVSCPRNVSECSHDCVLTSEGPLCFCPEGSVLERDGKTCSGCSSPDNGGCSQLCVPLSPVSWECDCFPGYDLQLDEKSCAASGPQPFLLFANSQDIRHMHFDGTDYGTLLSQQMGMVYALDHDPVENKIYFAHTALKWIERANMDGSQRERLIEEGVDVPEGLAVDWIGRRFYWTDRGKSLIGRSDLNGKRSKIITKENISQPRGIAVHPMAKRLFWTDTGINPRIESSSLQGLGRLVIASSDLIWPSGITIDFLTDKLYWCDAKQSVIEMANLDGSKRRRLTQNDVGHPFAVAVFEDYVWFSDWAMPSVMRVNKRTGKDRVRLQGSMLKPSSLVVVHPLAKPGADPCLYQNGGCEHICKKRLGTAWCSCREGFMKASDGKTCLALDGHQLLAGGEVDLKNQVTPLDILSKTRVSEDNITESQHMLVAEIMVSDQDDCAPVGCSMYARCISEGEDATCQCLKGFAGDGKLCSDIDECEMGVPVCPPASSKCINTEGGYVCRCSEGYQGDGIHCLDIDECQLGEHSCGENASCTNTEGGYTCMCAGRLSEPGLICPDSTPPPHLREDDHHYSVRNSDSECPLSHDGYCLHDGVCMYIEALDKYACNCVVGYIGERCQYRDLKWWELRHAGHGQQQKVIVVAVCVVVLVMLLLLSLWGAHYYRTQKLLSKNPKNPYEESSRDVRSRRPADTEDGMSSCPQPWFVVIKEHQDLKNGGQPVAGEDGQAADGSMQPTSWRQEPQLCGMGTEQGCWIPVSSDKGSCPQVMERSFHMPSYGTQTLEGGVEKPHSLLSANPLWQQRALDPPHQMELTQ
modifications: Pro-epidermal growth factor
notes: human recombinant EGF from Upstate Biotechnology
Consider B1, for which the “induction of SREBP-1 maturation (increase in mature SREBP-1), in words” value is “could not be recapitulated”.
